Measured values: the supplement of paper PMC7877785
± gives the uncertainty stated by the source.

Experiment: self-splicing fitness, log relative to wild type (ln ratio); higher = more splicing; Tetrahymena group I intron in knt gene, E. coli kanamycin selection, DiMSum; sequences stand for … in CUCUCU…GGAGGGAAAAGUUAUCAGGCAUGCACCUGGUAGCUAGUCUUUAAACCAAUAGAUUGCAUCGGUUUAAAAGGCAAGACCGUCAAAUUGCGGGAAAGGGGUCAACAGCCGUUCAGUACCAAGUCUCAGGGGAAACUUUGAGAUGGCCUUGCAAAGGGUAUGGUAAUAAGCUGACGGACAUGGUCCUAACCACGCAGCCAAGUCCUAAGUCAACAGAUCUUCUGUUGAUAUGGAUGCAGUUCACAGACUAAAUGUCGGUCGGGGAAGAUGUAUUCUUCUCAUAAGAUAUAGUCGGACCUCUCCUUAAUGGGAGCUAGCGGAUGAAGUGAUGCAACACUGGAGCCGCUGGGAACUAAUUUGUAUGCGAAAGUAUAUUGAUUAGUUUUGGAGUACUCGUGGUCG
Summary of the method: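 A randomised library covering all eight P1ex-region intron nucleotides was built with the intron in the knt kanamycin-resistance gene on pET-22b(+) and held in E. coli BL21(DE3). Cells were grown overnight at 37°C or 30°C on LB agar, with or without 25 μg/mL kanamycin, plus 100 μg/mL carbenicillin, 50 μM IPTG and 0.2% rhamnose, and pooled colonies were amplicon-sequenced on an Illumina HiSeq 2500. DiMSum fitness is the error-weighted combination of wild-type-normalised replicate fold changes, kanamycin versus none.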

Row | Sequence | self-splicing fitness (ln) (30 °C) | self-splicing fitness (ln) (37 °C)
1 | ACUAAGCAAUAUUACGGAGG | -2.52 ± 0.11 | -1.16 ± 0.13
2 | ACUAAGCAAUAUUACGGCAC | -0.673 ± 0.096 | -1.92 ± 0.095
3 | ACUAAGCAAUAUUACGGCCU | -0.171 ± 0.073 | -0.475 ± 0.087
4 | ACUAAGCAAUAUUACGGCUG | -0.108 ± 0.076 | 0.16 ± 0.097
5 | ACUAAGCAAUAUUACGGGGA | -1.84 ± 0.12 | -1.55 ± 0.13
6 | ACUAAGCAAUAUUACGGUAC | -2.7 ± 0.27 | -1.89 ± 0.19
7 | ACUAAGCAAUAUUACGGUCA | -1.57 ± 0.077 | -1.35 ± 0.094
8 | ACUAAGCAAUAUUACGGUCU | -1.45 ± 0.072 | -0.907 ± 0.082
9 | ACUAAGCAAUAUUACGGUGC | -2.36 ± 0.11 | -2.02 ± 0.15
10 | ACUAAGCAAUAUUACGGUUU | -2.05 ± 0.091 | -0.745 ± 0.096
11 | ACUAAGCAAUAUUACGUAUG | -3.55 ± 0.16 | -1.25 ± 0.14
12 | ACUAAGCAAUAUUACGUCAA | -3.07 ± 0.17 | -1.35 ± 0.14
13 | ACUAAGCAAUAUUACGUCGA | -1.04 ± 0.13 | -1.45 ± 0.12
14 | ACUAAGCAAUAUUACGUGAC | -3.82 ± 0.21 | -1.28 ± 0.14
15 | ACUAAGCAAUAUUACGUGAU | -1.65 ± 0.062 | -1.21 ± 0.077
16 | ACUAAGCAAUAUUACGUGCU | -1.62 ± 0.073 | -1.06 ± 0.099
17 | ACUAAGCAAUAUUACGUGGU | -3.41 ± 0.15 | -2.73 ± 0.21
18 | ACUAAGCAAUAUUACGUGUC | -3.48 ± 0.14 | -3.57 ± 0.21
19 | ACUCAGCAAUAUUACGAACG | -0.623 ± 0.1 | -0.492 ± 0.14
20 | ACUCAGCAAUAUUACGACCG | -0.553 ± 0.16 | -1 ± 0.15
21 | ACUCAGCAAUAUUACGACGU | -0.498 ± 0.063 | 0.168 ± 0.082
22 | ACUCAGCAAUAUUACGAUAC | -0.894 ± 0.13 | -0.656 ± 0.19
23 | ACUCAGCAAUAUUACGAUCC | -3.06 ± 0.37 | 
24 | ACUCAGCAAUAUUACGAUGA | -1.82 ± 0.12 | -0.791 ± 0.11
25 | ACUCAGCAAUAUUACGCAGU | -3.55 ± 0.16 | -2.28 ± 0.17

Row | Sequence | self-splicing fitness (ln) (30 °C) | self-splicing fitness (ln) (37 °C)
26 | ACUCAGCAAUAUUACGCCCC | -1.48 ± 0.12 | 0.148 ± 0.18
27 | ACUCAGCAAUAUUACGCGGG | -2.91 ± 0.15 | -2.68 ± 0.18
28 | ACUCAGCAAUAUUACGGCAG | -1.52 ± 0.089 | -0.501 ± 0.093
29 | ACUCAGCAAUAUUACGGCUU | -0.0445 ± 0.067 | 0.494 ± 0.086
30 | ACUCAGCAAUAUUACGGUCA | -1.11 ± 0.11 | -1.05 ± 0.1
31 | ACUCAGCAAUAUUACGUAGA | -1.41 ± 0.066 | -0.457 ± 0.092
32 | ACUCAGCAAUAUUACGUAGU | -2.86 ± 0.13 | -1.35 ± 0.12
33 | ACUCAGCAAUAUUACGUGAA | -1.27 ± 0.053 | 0.294 ± 0.086
34 | ACUGAGCAAUAUUACGAAGG | -2.53 ± 0.18 | -2.02 ± 0.24
35 | ACUGAGCAAUAUUACGAGGG | -2.5 ± 0.18 | -2.21 ± 0.33
36 | ACUGAGCAAUAUUACGAGUU | -2.88 ± 0.17 | -2.91 ± 0.28
37 | ACUGAGCAAUAUUACGCCAU | -2.4 ± 0.16 | -2.74 ± 0.27
38 | ACUGAGCAAUAUUACGCGGA | -1.94 ± 0.1 | -1.74 ± 0.12
39 | ACUGAGCAAUAUUACGCGGC | -3.69 ± 0.4 | -2.28 ± 0.28
40 | ACUGAGCAAUAUUACGCGGG | -2.64 ± 0.17 | -2.03 ± 0.18
41 | ACUGAGCAAUAUUACGCUAU | -3.58 ± 0.15 | -2.42 ± 0.14
42 | ACUGAGCAAUAUUACGGACA | -2.8 ± 0.22 | -2.27 ± 0.17
43 | ACUGAGCAAUAUUACGGAGC | -2.54 ± 0.23 | -1.44 ± 0.28
44 | ACUGAGCAAUAUUACGUAGC | -3.07 ± 0.12 | -1.66 ± 0.13
45 | ACUGAGCAAUAUUACGUCAU | -4.08 ± 0.39 | -2.26 ± 0.19
46 | ACUGAGCAAUAUUACGUUAA | -4.3 ± 0.42 | -2.15 ± 0.28
47 | ACUGAGCAAUAUUACGUUUC | -3.19 ± 0.27 | -2.6 ± 0.23
48 | ACUUAGCAAUAUUACGACAC | -2.03 ± 0.14 | -0.762 ± 0.2
49 | ACUUAGCAAUAUUACGACUC | -1.05 ± 0.12 | -0.137 ± 0.15
50 | ACUUAGCAAUAUUACGAUAU | -1.62 ± 0.087 | -1.18 ± 0.11

Row | Sequence | self-splicing fitness (ln) (30 °C) | self-splicing fitness (ln) (37 °C)
51 | ACUUAGCAAUAUUACGAUCU | -0.0945 ± 0.076 | 0.51 ± 0.1
52 | ACUUAGCAAUAUUACGCACC | -1.99 ± 0.23 | 0.826 ± 0.29
53 | ACUUAGCAAUAUUACGCCUA | -0.829 ± 0.29 | 0.394 ± 0.2
54 | ACUUAGCAAUAUUACGCCUC | -2.19 ± 0.26 | -1.64 ± 0.3
55 | ACUUAGCAAUAUUACGCGUU | -2.5 ± 0.12 | -2.05 ± 0.12
56 | ACUUAGCAAUAUUACGGAAG | -2.44 ± 0.13 | -1.25 ± 0.14
57 | ACUUAGCAAUAUUACGGGAC | -3.61 ± 0.19 | -2.03 ± 0.17
58 | ACUUAGCAAUAUUACGGUAG | -3.35 ± 0.23 | -1.83 ± 0.23
59 | ACUUAGCAAUAUUACGGUCC | -2.46 ± 0.12 | -1.33 ± 0.12
60 | ACUUAGCAAUAUUACGGUGA | -1.76 ± 0.15 | -1.56 ± 0.15
61 | ACUUAGCAAUAUUACGUAGU | -2.87 ± 0.11 | -2.73 ± 0.19
62 | ACUUAGCAAUAUUACGUCAU | -3.1 ± 0.2 | -1.56 ± 0.17
63 | ACUUAGCAAUAUUACGUCGC |  | -1.22 ± 0.26
64 | ACUUAGCAAUAUUACGUGCA | -1.1 ± 0.055 | -0.535 ± 0.072
65 | ACUUAGCAAUAUUACGUUCA | -0.344 ± 0.19 | -0.694 ± 0.2
66 | ACUUAGCAAUAUUACGUUCU | -1.28 ± 0.064 | -0.195 ± 0.087
67 | ACUUAGCAAUAUUACGUUUA | -1.5 ± 0.17 | -1.07 ± 0.18
68 | AGAAAGCAAUAUUACGAAAC | -3.2 ± 0.25 | -2.93 ± 0.24
69 | AGAAAGCAAUAUUACGAAAU | -1.52 ± 0.1 | -1.91 ± 0.15
70 | AGAAAGCAAUAUUACGAAGU | -3.61 ± 0.27 | -2.15 ± 0.21
71 | AGAAAGCAAUAUUACGACAU | 0.0508 ± 0.012 | 0.0923 ± 0.032
72 | AGAAAGCAAUAUUACGACCU | 0.52 ± 0.099 | 0.265 ± 0.11
73 | AGAAAGCAAUAUUACGACGU | 0.0909 ± 0.1 | 0.35 ± 0.1
74 | AGAAAGCAAUAUUACGACUU | -0.252 ± 0.072 | 0.222 ± 0.1
75 | AGAAAGCAAUAUUACGAGCA | -0.695 ± 0.11 | -0.262 ± 0.16
